Targets include HLA-B*08:01; HLA-B*13:02; HLA-C*01:02; HLA-A*02:01; HLA-C*07:01; HLA-A*24:02.
What all share (assay): IEDB peptide-MHC binding, purified MHC/direct/fluorescence; filed as Kd, often an IC50 or EC50 that approximates it; ≥ and ≤ were set here for values at or beyond the usual limits of such assays
Common to all, as to conditions: source organism: Homo sapiens

pKd: −log10 of the molar value.

Sequence DMKARQEAL had a pKd with HLA-B*08:01 of 7.00.
ELPKYGVKV: the pKd with HLA-B*13:02 was not above 5.00.
For the sequence FLHEKQHEL, the pKd with HLA-B*08:01 is 7.00.
In the assay with HLA-C*01:02, FLPWHRLFL gave a pKd of 7.00.
As to HLIDPNTLQV, the pKd with HLA-A*02:01 was 8.00.
In the assay with HLA-C*07:01, KRPTPTFHS had a pKd of 6.00.
In turn, LLMEKEDYHSL gave a pKd with HLA-A*02:01 of 7.00.
As to QLPDSVNQL, the pKd with HLA-A*02:01 is 7.00.
RSLEYLPLRF showed a pKd in the assay with HLA-A*24:02 not above 5.00.
The sequence SYLEQASRI had a negative logarithm of the Kd (pKd) with HLA-A*24:02 of 6.00.
YIHGGGWAL showed a pKd with HLA-B*08:01 of 7.00.

The values are drawn from the Immune Epitope Database (IEDB).
